Source: PMC5714352

Tested on: NucT H124N (Helicobacter pylori 26695)
Assay: EMSA

CAACGGCATAAAGCTTGACGATTACATTGCTAGGACATCTTTGCCCACCTGCAGGTTCACCC [substrate I (XV98, 62-mer ssDNA)]
Kd: 2 nM
